Relative Ki mutation data for one substance are collected here from patent US20180355338A1.

Test [1] has as its target TY-145 protease variant S173P, S175P, F180Y, R224D (Bacillus sp. TY-145). The test can be described thus: Ki fitted from Suc-AAPF-pNA activity; Model B detergent; ratio against m3 (without R224D).
The target of test [2] is TY-145 protease variant S173P, S175P, I178Y, F180Y (Bacillus sp. TY-145). The test can be described thus: Ki fitted from Suc-AAPF-pNA activity; Model B detergent; ratio against m3 (without I178Y).
The target of test [3] is TY-145 protease variant S173P, S175P, I178F, F180Y (Bacillus sp. TY-145). The test is described as follows: Ki fitted from Suc-AAPF-pNA activity; Model B detergent; ratio against m3 (without I178F).
In test [4] the target is TY-145 protease variant S173P, S175P, F180Y, L184Y (Bacillus sp. TY-145). The test can be described thus: Ki fitted from Suc-AAPF-pNA activity; Model B detergent; ratio against m3 (without L184Y).
Test [5] concerns the target TY-145 protease variant S173P, S175P, I178F, F180Y (Bacillus sp. TY-145). The test can be described thus: Ki fitted from Suc-AAPF-pNA activity; Model B detergent; ratio against m3 (without I178F); second row of the same variant.
Test [6] concerns the target TY-145 protease variant K146T, S173P, S175P, F180Y (Bacillus sp. TY-145). The test can be described thus: Ki fitted from Suc-AAPF-pNA activity; Tris buffer pH 8; ratio against m3 (without K146T).
The target in test [7] is TY-145 protease variant S27K, S171N, S173P, G174R, S175P, F180Y, G182A, L184F, Q198E, N199K, R224G, T297P (Bacillus sp. TY-145). The test is described as follows: Ki fitted from Suc-AAPF-pNA activity; Model B detergent; ratio against m13 (without R224G).
Test [8] deals with TY-145 protease variant S173P, S175P, N176Y, F180Y (Bacillus sp. TY-145). The test can be described thus: Ki fitted from Suc-AAPF-pNA activity; Model B detergent; ratio against m3 (without N176Y).

As for “Z-Gly-Ala-NHCH(CH2C6H4pOH)C(OH)(SO3Na)-H, wherein Z is benzyloxycarbonyl (peptide)”, the relative Ki mutation in test [1] is 0.36; in test [2], 0.53; in test [3], 0.5; in test [4], 0.24; in test [5], 0.49; in test [6], 0.06. The relative Ki mutation in test [7] worked out at 0.69; in test [8] it was 0.81.
